Residue numbers refer to the chain shown, from its start. Numbered stars: 1 amine (or outer) side, 2 acyl side, 3 side chain; on linkers, the order of the positions; unused ones are H or OH. Square brackets hold non-standard residues; d marks the D form. Side chains are listed from the residue outwards. Ends that are not written are not given here. * marks the point of attachment. C20 diacid = O=C(O)CCCCCCCCCCCCCCCCCCC(=O)*; γGlu = O=C(O)[C@H](CCC(=O)[*:2])N[*:1]; αMeF = C[C@](N)(Cc1ccccc1)C(=O)O; cTA = not defined here; AEEA = NCCOCCOCC(=O)O; Aib = CC(C)(N)C(=O)O
T1: human gastric inhibitory peptide receptor (GIPR) (human, UniProt P48546 22-466)
T1 sequence (looked up): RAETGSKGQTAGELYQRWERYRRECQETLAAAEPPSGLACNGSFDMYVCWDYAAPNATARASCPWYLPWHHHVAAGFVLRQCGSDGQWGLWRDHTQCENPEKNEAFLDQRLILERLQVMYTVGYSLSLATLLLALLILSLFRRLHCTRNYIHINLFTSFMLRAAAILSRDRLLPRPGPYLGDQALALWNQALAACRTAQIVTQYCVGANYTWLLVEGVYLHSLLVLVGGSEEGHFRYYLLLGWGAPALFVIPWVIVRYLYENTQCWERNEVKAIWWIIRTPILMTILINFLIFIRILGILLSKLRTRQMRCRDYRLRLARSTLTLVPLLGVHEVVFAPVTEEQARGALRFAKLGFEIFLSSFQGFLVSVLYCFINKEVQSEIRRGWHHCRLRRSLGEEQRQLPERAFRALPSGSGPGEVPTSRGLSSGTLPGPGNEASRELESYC

B1: Example 120 (peptide)
peptide: Y[Aib][cTA]GT[αMeF]TSDYSIXLDEK([AEEA-AEEA-γGlu-C20 diacid])AQ[Aib]AFIEYLIEGGPSSGAPPPS-NH2
modifications: not fully specified (residue 13); printed as Y-Aib-cTA-GT-αMeF-TSDYSI-αMeF-LDEK((2-[2-(2-Amino-ethoxy)-ethoxy]-acetyl)2-(γ-Glu)-CO-(CH2)18-CO2H)AQ-Aib-AFIEYLIEGGPSSGAPPPS-NH2
B2: Example 123 (peptide)
peptide: Y[Aib]EGT[αMeF]TSDYSIXLDKK([AEEA-AEEA-γGlu-C20 diacid])AQ[Aib]EFIEYLIEGGPSSG-NH2
modifications: not fully specified (residue 13); printed as Y-Aib-EGT-αMeF-TSDYSI-αMeF-LDKK((2-[2-(2-Amino-ethoxy)-ethoxy]-acetyl)2-(γ-Glu)-CO-(CH2)18-CO2H)AQ-Aib-EFIEYLIEGGPSSG-NH2
B3: Example 126 (peptide)
peptide: Y[Aib]EGT[αMeF]TSDYSIXLDKK([AEEA-AEEA-γGlu-C20 diacid])AQ[Aib]AFIEYLIEAGPSSGAPPPS-NH2
modifications: not fully specified (residue 13); printed as Y-Aib-EGT-αMeF-TSDYSI-αMeF-LDKK((2-[2-(2-Amino-ethoxy)-ethoxy]-acetyl)2-(γ-Glu)-CO-(CH2)18-CO2H)AQ-Aib-AFIEYLIEAGPSSGAPPPS-NH2
B4: Example 138 (peptide)
peptide: Y[Aib]EGT[αMeF]TSDYSIXLDKK([AEEA-AEEA-γGlu-C20 diacid])AQ[Aib]SFIEYLIEGGPSSGAPPPS-NH2
modifications: not fully specified (residue 13); printed as Y-Aib-EGT-αMeF-TSDYSI-αMeF-LDKK((2-[2-(2-Amino-ethoxy)-ethoxy]-acetyl)2-(γ-Glu)-CO-(CH2)18-CO2H)AQ-Aib-SFIEYLIEGGPSSGAPPPS-NH2
B5: Example 124 (peptide)
peptide: Y[Aib]EGT[αMeF]TSDYSIXLDEK([AEEA-AEEA-γGlu-C20 diacid])AQ[Aib]EFIEYLIEGGPSSG-NH2
modifications: not fully specified (residue 13); printed as Y-Aib-EGT-αMeF-TSDYSI-αMeF-LDEK((2-[2-(2-Amino-ethoxy)-ethoxy]-acetyl)2-(γ-Glu)-CO-(CH2)18-CO2H)AQ-Aib-EFIEYLIEGGPSSG-NH2
B6: Example 323 (peptide)
peptide: YXEGTFTSDYSIXLDEKAQXAFIEYLIEGGPSSGAPPPS
modifications: Aib2, αMeL13, K17 conjugated to (2-[2-(2-Amino-ethoxy)-ethoxy]-acetyl)2-(γ-Glu)-CO-(CH2)16-CO2H, Aib20, C-terminal amide (NH2)
B7: Example 325 (peptide)
peptide: B6 peptide with F6X, X13L, E16K
modifications: Aib2, αMeF(2F)6, K17 conjugated to (2-[2-(2-Amino-ethoxy)-ethoxy]-acetyl)2-(γ-Glu)-CO-(CH2)18-CO2H, Aib20, C-terminal amide (NH2)
B8: Example 132 (peptide)
peptide: B6 peptide with F6X, Y10X, X13L, E16K
modifications: Y-Aib-EGT-αMeF-TSD-3Pal-SILLDKK((2-[2-(2-Amino-ethoxy)-ethoxy]-acetyl)2-(γ-Glu)-CO-(CH2)18-CO2H)AQ-Aib-AFIEYLIEGGPSSGAPPPS-NH2
B9: Example 324 (peptide)
peptide: B6 peptide with E16K, E28A
modifications: Aib2, αMeL13, K17 conjugated to (2-[2-(2-Amino-ethoxy)-ethoxy]-acetyl)2-(γ-Glu)-CO-(CH2)18-CO2H (printed "(CH2)1s"), Aib20, C-terminal amide (NH2)
B10: Example 127 (peptide)
peptide: B6 peptide with F6X, Y10I, X13L, E16K
modifications: Y-Aib-EGT-αMeF-TSDISILLDKK((2-[2-(2-Amino-ethoxy)-ethoxy]-acetyl)2-(γ-Glu)-CO-(CH2)18-CO2H)AQ-Aib-AFIEYLIEGGPSSGAPPPS-NH2
B11: Example 131 (peptide)
peptide: B6 peptide with F6X, Y10X, X13L, E16K
modifications: Y-Aib-EGT-αMeF-TSD-αMeF-SILLDKK((2-[2-(2-Amino-ethoxy)-ethoxy]-acetyl)2-(γ-Glu)-CO-(CH2)18-CO2H)AQ-Aib-AFIEYLIEGGPSSGAPPPS-NH2
B12: Example 128 (peptide)
peptide: B6 peptide with F6X, Y10H, X13L, E16K
modifications: Y-Aib-EGT-αMeF-TSDHSILLDKK((2-[2-(2-Amino-ethoxy)-ethoxy]-acetyl)2-(γ-Glu)-CO-(CH2)18-CO2H)AQ-Aib-AFIEYLIEGGPSSGAPPPS-NH2
B13: Example 225 (peptide)
peptide: B6 peptide with F6X, A21E, E24X
modifications: Y-Aib-EGT-αMeF-TSDYSI-Aib-LDEK((2-[2-(2-Amino-ethoxy)-ethoxy]-acetyl)2-(γ-Glu)-CO-(CH2)18-CO2H)AQ-Aib-EFI-(D-Glu)-YLIEGGPSSGAPPPS-NH2
B14: Example 129 (peptide)
peptide: B6 peptide with F6X, Y10L, X13L, E16K
modifications: Y-Aib-EGT-αMeF-TSDLSILLDKK((2-[2-(2-Amino-ethoxy)-ethoxy]-acetyl)2-(γ-Glu)-CO-(CH2)18-CO2H)AQ-Aib-AFIEYLIEGGPSSGAPPPS-NH2
B15: Example 130 (peptide)
peptide: B6 peptide with F6X, Y10E, X13L, E16K
modifications: Y-Aib-EGT-αMeF-TSDESILLDKK((2-[2-(2-Amino-ethoxy)-ethoxy]-acetyl)2-(γ-Glu)-CO-(CH2)18-CO2H)AQ-Aib-AFIEYLIEGGPSSGAPPPS-NH2
B16: Example 328 (peptide)
peptide: B6 peptide with Y1F, E16K, G29A
modifications: Aib2, αMeL13, K17 conjugated to (2-[2-(2-Amino-ethoxy)-ethoxy]-acetyl)2-(γ-Glu)-CO-(CH2)16-CO2H, Aib20, C-terminal amide (NH2)
B17: Example 226 (peptide)
peptide: B6 peptide with F6X, X13L, A21E, E24X
modifications: Y-Aib-EGT-αMeF(2F)-TSDYSILLDEK((2-[2-(2-Amino-ethoxy)-ethoxy]-acetyl)2-(γ-Glu)-CO-(CH2)18-CO2H)AQ-Aib-EFI-(D-Glu)-YLIEGGPSSGAPPPS-NH2
B18: Example 186 (peptide)
peptide: B6 peptide with F6X, Y10X, A21E, E24X
modifications: Y-Aib-EGT-αMeF(2F)-TSD-αMeY-SI-αMeF-LDEK((2-[2-(2-Amino-ethoxy)-ethoxy]-acetyl)2-(γ-Glu)-CO-(CH2)18-CO2H)AQ-Aib-EFI-(D-Glu)-YLIEGGPSSGAPPPS-NH2
B19: Example 319 (peptide)
peptide: Y[Aib]EGTFTSDYSILLDKK([AEEA-AEEA-γGlu-C20 diacid])AQ[Aib]EFIEYLIAGGPSSGAPPPS-NH2
modifications: N-terminus assumed
SMILES: CC[C@H](C)[C@H](NC(=O)[C@H](CC(C)C)NC(=O)[C@H](Cc1ccc(O)cc1)NC(=O)[C@H](CCC(=O)O)NC(=O)[C@@H](NC(=O)[C@H](Cc1ccccc1)NC(=O)[C@H](CCC(=O)O)NC(=O)C(C)(C)NC(=O)[C@H](CCC(N)=O)NC(=O)[C@H](C)NC(=O)[C@H](CCCCNC(=O)COCCOCCNC(=O)COCCOCCNC(=O)CC[C@H](NC(=O)CCCCCCCCCCCCCCCCCCC(=O)O)C(=O)O)NC(=O)[C@H](CCCCN)NC(=O)[C@H](CC(=O)O)NC(=O)[C@H](CC(C)C)NC(=O)[C@H](CC(C)C)NC(=O)[C@@H](NC(=O)[C@H](CO)NC(=O)[C@H](Cc1ccc(O)cc1)NC(=O)[C@H](CC(=O)O)NC(=O)[C@H](CO)NC(=O)[C@@H](NC(=O)[C@H](Cc1ccccc1)NC(=O)[C@@H](NC(=O)CNC(=O)[C@H](CCC(=O)O)NC(=O)C(C)(C)NC(=O)[C@@H](N)Cc1ccc(O)cc1)[C@@H](C)O)[C@@H](C)O)[C@@H](C)CC)[C@@H](C)CC)C(=O)N[C@@H](C)C(=O)NCC(=O)NCC(=O)N1CCC[C@H]1C(=O)N[C@@H](CO)C(=O)N[C@@H](CO)C(=O)NCC(=O)N[C@@H](C)C(=O)N1CCC[C@H]1C(=O)N1CCC[C@H]1C(=O)N1CCC[C@H]1C(=O)N[C@@H](CO)C(N)=O

Key:
Experiment in all cases: cell-based or functional assay
[1] = biological target: human GLP-1 receptor (GLP-1R) (human, UniProt P43220 24-463)
[2] = biological target: T1, human gastric inhibitory peptide …
[3] = biological target: human GLP-1 receptor (human, UniProt P43220 24-463)

Binder | hGLP1R cAMP EC50 ratio [1] | hGLP1R cAMP Rel EC50 [1] [nM] | hGIPR cAMP EC50 ratio [2] | hGIPR cAMP Rel EC50 [2] [nM] | hGLP1R GTPgS % Top [3] [%] | hGLP1R GTPgS Rel EC50 [3] [nM]
B1 | 0.319 | 0.201 | 1.67 | 0.122 |  | 
B2 | 1.58 | 0.0344 | 4.04 | 0.0423 |  | 
B3 | 0.869 | 0.0715 | 2.53 | 0.0685 |  | 
B4 |  |  |  | 0.0581 |  | 
B5 | 1.29 | 0.0475 | 2.18 | 0.0762 |  | 
B6 |  |  |  |  | 81.9 | 0.79
B7 |  |  |  |  | 97.9 | 0.414
B8 | 0.255 | 0.26 | 2.88 | 0.0657 |  | 
B9 |  |  |  |  | 84.5 | 0.475
B10 | 0.443 | 0.145 | 0.917 | 0.158 |  | 
B11 | 0.425 | 0.156 | 1.03 | 0.183 |  | 
B12 | 0.7 | 0.0924 | 2.46 | 0.0694 |  | 
B13 |  |  |  | 0.101 |  | 
B14 | 0.543 | 0.121 | 1.88 | 0.106 |  | 
B15 | 0.182 | 0.368 | 0.116 | 1.55 |  | 
B16 |  |  |  |  | 66.3 | 0.481
B17 |  |  |  | 0.0461 |  | 
B18 | 0.572 | 0.0939 |  |  |  | 
B19 |  |  |  |  | 65.7 | 0.657
F[Aib]EGTFTSDYSILLDKK([AEEA-AEEA-γGlu-C20 diacid])AQ[Aib]AFIEYLIEGGPSSGAPPPS-NH2 [Example 326] |  |  |  |  | 61.6 | 0.663
